The source of these data is paper PMC4433238.

Experiment in all cases: EMSA
In general terms: Mobility shift assays separate free from complexed probe on a gel.

The target of data set [1] is T1, SmAlkD2 (Streptococcus mutans Clarke (ATCC 25175)) (UniProt A0A0M3KL00).
T1 sequence: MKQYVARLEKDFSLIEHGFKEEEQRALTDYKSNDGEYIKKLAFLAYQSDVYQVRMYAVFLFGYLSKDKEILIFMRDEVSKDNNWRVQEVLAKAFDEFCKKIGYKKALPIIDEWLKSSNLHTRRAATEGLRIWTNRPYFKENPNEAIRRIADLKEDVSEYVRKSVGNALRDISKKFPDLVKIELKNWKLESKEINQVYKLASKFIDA
The conditions noted are these: EMSA: 100 pM 32P-DNA, 0-50 uM protein, 20 mM Tris-HCl pH 7.5, 100 mM NaCl, 5% glycerol, 2 mM DTT, 0.1 mM EDTA, 0.1 mg/mL BSA, 20 C, 30 min, 5% native gel.

For data set [2], the target named is T2, BcAlkD (Bacillus cereus) (UniProt Q2PAD8).
T2 sequence: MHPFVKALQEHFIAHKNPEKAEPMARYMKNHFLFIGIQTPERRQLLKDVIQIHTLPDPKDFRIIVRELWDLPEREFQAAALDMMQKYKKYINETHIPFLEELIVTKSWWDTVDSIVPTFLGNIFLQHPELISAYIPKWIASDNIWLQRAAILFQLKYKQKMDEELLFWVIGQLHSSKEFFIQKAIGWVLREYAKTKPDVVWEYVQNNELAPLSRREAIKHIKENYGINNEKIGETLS
The conditions noted are these: EMSA: 100 pM 32P-DNA, 0-50 uM protein, 20 mM Tris-HCl pH 7.5, 100 mM NaCl, 5% glycerol, 2 mM DTT, 0.1 mM EDTA, 0.1 mg/mL BSA, 20 C, 30 min; 5% native gel.

Data set [3] has as its target T3, BcAlkD-K29A K29A (Bacillus cereus) (UniProt Q2PAD8).
T3 sequence: T2 sequence with K29A
The conditions noted are these: N13 of strand 1 = tetrahydrofuran (THF) abasic site mimetic; EMSA: 100 pM 32P-DNA, 0-50 uM protein, 20 mM Tris-HCl pH 7.5, 100 mM NaCl, 5% glycerol, 2 mM DTT, 0.1 mM EDTA, 0.1 mg/mL BSA, 20 C, 30 min; 5% native gel.

Changes are numbered by the printed parent chain.

For “GACCACTACACCGATTCCTTACAAC (double strand) [G•C-DNA 25-mer]”, the values for the Kd in data set [1] and in data set [2] were 67 µM and 19 µM, respectively.

As to “GACCACTACACCGATTCCTTACAAC / GTTGTAAGGAATTGGTGTAGTGGTC [G•T-DNA 25-mer]”, the Kd – broadly, the concentration at which binding is half-saturated – in data set [1] (G13•T13 mismatch) was 52 µM.

“GACCACTACACCNATTCCTTACAAC / GTTGTAAGGAATCGGTGTAGTGGTC [THF•C-DNA 25-mer]” returned a dissociation constant Kd in data set [1] (N13 of strand 1 = tetrahydrofuran (THF) abasic site mimetic) of 3.4 µM. Also, the binding signal (fold lower affinity than WT) in data set [3] was more than 10000.
